How the values were obtained:
[1] = substrate: O=C(O)CCC(=O)C(=O)O; assay: purified protein; format: biochemical, Sulfurisphaera tokodaii; settings: 0.25 mM CoA, 2 mM methylviologen, 50 mM Tris-HCl pH 8.5, 80 °C
[2] = substrate: CC(=O)C(=O)O; assay: purified protein; format: biochemical, Sulfurisphaera tokodaii; settings: 0.25 mM CoA, 2 mM methylviologen, 50 mM Tris-HCl pH 8.5, 80 °C

Protein	Km [1] [µM]	Vmax [1] [µmol/min/mg]	Km [2] [µM]	Vmax [2] [µmol/min/mg]
StOFOR1 (Sulfurisphaera tokodaii str. 7) (protein, recombinant in E. coli C43(DE3), pET-17b-based pOFORAB, untagged; 70 kDa alpha and 34 kDa beta subunits; (ab)2 heterotetramer with TPP, Mg2+, [4Fe-4S]) chain 1: MRLSWVIGGAQGTGIDTAANIFGNAVASAGYYIYGNREYYSNIKGRHSYFSLTISDKRVRSNTQKIDILVSFDAETVFQHFYDVKDILIYNKAVETTKIDAVQSMEPELAERIKDFLTKQGYETTVKGALEYASKNNVTLIPVNYDEIAKKVADEMKVPLSVTERVKNIVGITISYKLLGLDVNYLIEAINSTFKQDLYRKMNELAVKDSYDIVESRYNLKPSSKERRRFWLDGNTAVAIGKIYGGVRFQSYYPITPASDESVYIEAHQDVLMEDPITGDKKKGTIVVVQAEDELAAINMAIGAALTGVRAATATSGPGFSLMVEGLGWAGMNEVPVVITYYIRGGPSTGLPTRTAQSDLIFPIFAGHGEFPKIVLASGDHAEAFKDAIWALNLAEKYQTPVIHLVEKTLANSYSTIPYEELELDKLKAERGKIVESGDISYKRFKFTEDGISPRAFLGKATMYYTGDEHNEEGHISEDVVNRTMMYEKRMKKLEVADKEIPEESRVKIYGDLNSRNLIITWGSPTGVLRDILEESNFDFTLLQIRMFSPFPKNLVSKLMEGRDKIITVEGNYLAQTSLLVKMYTGKDVTNSILKWNGRPFLRDELEEALIKVIKDGEKRVVLNGGI chain 2: MAAFKPQWNDWCPGCGNFGILNAEQQAIVELGVDTKNVVVVSGIGCSGKIPHFFRTPISGVHTLHGRAIAFATGIKLSNPDLVVIVNGGDGDLLGIGAGHFVAAGRRNVDMVVILHDNGVYGLTKGQASPTLKRGEKPKSLPRPNINDAVNPIALAISSGYTFVARGYAYDVKHLKELIKSAIKHKGLALIDVLQPCPTYNDINTKEWYDKRIYKLDTLPDWDPVVKKPEEVNEKIKRAIDKSLEWGDRIPIGIFYQNELVPSYEERIKANSPAYLDYTPAKQLIEKEGKLTTIIDPLLKEREVD	2100 ± 300	2.7	320 ± 80	7.5
StOFOR1 (Sulfurisphaera tokodaii str. 7; Q96Y66:S41A) (protein, recombinant in E. coli C43(DE3), pET-17b-based pOFORAB, untagged; 70 kDa alpha and 34 kDa beta subunits; (ab)2 heterotetramer with TPP, Mg2+, [4Fe-4S]) chain 1: MRLSWVIGGAQGTGIDTAANIFGNAVASAGYYIYGNREYYANIKGRHSYFSLTISDKRVRSNTQKIDILVSFDAETVFQHFYDVKDILIYNKAVETTKIDAVQSMEPELAERIKDFLTKQGYETTVKGALEYASKNNVTLIPVNYDEIAKKVADEMKVPLSVTERVKNIVGITISYKLLGLDVNYLIEAINSTFKQDLYRKMNELAVKDSYDIVESRYNLKPSSKERRRFWLDGNTAVAIGKIYGGVRFQSYYPITPASDESVYIEAHQDVLMEDPITGDKKKGTIVVVQAEDELAAINMAIGAALTGVRAATATSGPGFSLMVEGLGWAGMNEVPVVITYYIRGGPSTGLPTRTAQSDLIFPIFAGHGEFPKIVLASGDHAEAFKDAIWALNLAEKYQTPVIHLVEKTLANSYSTIPYEELELDKLKAERGKIVESGDISYKRFKFTEDGISPRAFLGKATMYYTGDEHNEEGHISEDVVNRTMMYEKRMKKLEVADKEIPEESRVKIYGDLNSRNLIITWGSPTGVLRDILEESNFDFTLLQIRMFSPFPKNLVSKLMEGRDKIITVEGNYLAQTSLLVKMYTGKDVTNSILKWNGRPFLRDELEEALIKVIKDGEKRVVLNGGI chain 2: MAAFKPQWNDWCPGCGNFGILNAEQQAIVELGVDTKNVVVVSGIGCSGKIPHFFRTPISGVHTLHGRAIAFATGIKLSNPDLVVIVNGGDGDLLGIGAGHFVAAGRRNVDMVVILHDNGVYGLTKGQASPTLKRGEKPKSLPRPNINDAVNPIALAISSGYTFVARGYAYDVKHLKELIKSAIKHKGLALIDVLQPCPTYNDINTKEWYDKRIYKLDTLPDWDPVVKKPEEVNEKIKRAIDKSLEWGDRIPIGIFYQNELVPSYEERIKANSPAYLDYTPAKQLIEKEGKLTTIIDPLLKEREVD	3200 ± 400	1.1	490 ± 90	2.2
StOFOR1 (Sulfurisphaera tokodaii str. 7; Q96Y66:T349L) (protein, recombinant in E. coli C43(DE3), pET-17b-based pOFORAB, untagged; 70 kDa alpha and 34 kDa beta subunits; (ab)2 heterotetramer with TPP, Mg2+, [4Fe-4S]) chain 1: MRLSWVIGGAQGTGIDTAANIFGNAVASAGYYIYGNREYYSNIKGRHSYFSLTISDKRVRSNTQKIDILVSFDAETVFQHFYDVKDILIYNKAVETTKIDAVQSMEPELAERIKDFLTKQGYETTVKGALEYASKNNVTLIPVNYDEIAKKVADEMKVPLSVTERVKNIVGITISYKLLGLDVNYLIEAINSTFKQDLYRKMNELAVKDSYDIVESRYNLKPSSKERRRFWLDGNTAVAIGKIYGGVRFQSYYPITPASDESVYIEAHQDVLMEDPITGDKKKGTIVVVQAEDELAAINMAIGAALTGVRAATATSGPGFSLMVEGLGWAGMNEVPVVITYYIRGGPSLGLPTRTAQSDLIFPIFAGHGEFPKIVLASGDHAEAFKDAIWALNLAEKYQTPVIHLVEKTLANSYSTIPYEELELDKLKAERGKIVESGDISYKRFKFTEDGISPRAFLGKATMYYTGDEHNEEGHISEDVVNRTMMYEKRMKKLEVADKEIPEESRVKIYGDLNSRNLIITWGSPTGVLRDILEESNFDFTLLQIRMFSPFPKNLVSKLMEGRDKIITVEGNYLAQTSLLVKMYTGKDVTNSILKWNGRPFLRDELEEALIKVIKDGEKRVVLNGGI chain 2: MAAFKPQWNDWCPGCGNFGILNAEQQAIVELGVDTKNVVVVSGIGCSGKIPHFFRTPISGVHTLHGRAIAFATGIKLSNPDLVVIVNGGDGDLLGIGAGHFVAAGRRNVDMVVILHDNGVYGLTKGQASPTLKRGEKPKSLPRPNINDAVNPIALAISSGYTFVARGYAYDVKHLKELIKSAIKHKGLALIDVLQPCPTYNDINTKEWYDKRIYKLDTLPDWDPVVKKPEEVNEKIKRAIDKSLEWGDRIPIGIFYQNELVPSYEERIKANSPAYLDYTPAKQLIEKEGKLTTIIDPLLKEREVD	2300 ± 300	2	510 ± 110	3.2
StOFOR1 (Sulfurisphaera tokodaii str. 7; Q96Y68:K49I) (protein, recombinant in E. coli C43(DE3), pET-17b-based pOFORAB, untagged; 70 kDa alpha and 34 kDa beta subunits; (ab)2 heterotetramer with TPP, Mg2+, [4Fe-4S]) chain 1: MRLSWVIGGAQGTGIDTAANIFGNAVASAGYYIYGNREYYSNIKGRHSYFSLTISDKRVRSNTQKIDILVSFDAETVFQHFYDVKDILIYNKAVETTKIDAVQSMEPELAERIKDFLTKQGYETTVKGALEYASKNNVTLIPVNYDEIAKKVADEMKVPLSVTERVKNIVGITISYKLLGLDVNYLIEAINSTFKQDLYRKMNELAVKDSYDIVESRYNLKPSSKERRRFWLDGNTAVAIGKIYGGVRFQSYYPITPASDESVYIEAHQDVLMEDPITGDKKKGTIVVVQAEDELAAINMAIGAALTGVRAATATSGPGFSLMVEGLGWAGMNEVPVVITYYIRGGPSTGLPTRTAQSDLIFPIFAGHGEFPKIVLASGDHAEAFKDAIWALNLAEKYQTPVIHLVEKTLANSYSTIPYEELELDKLKAERGKIVESGDISYKRFKFTEDGISPRAFLGKATMYYTGDEHNEEGHISEDVVNRTMMYEKRMKKLEVADKEIPEESRVKIYGDLNSRNLIITWGSPTGVLRDILEESNFDFTLLQIRMFSPFPKNLVSKLMEGRDKIITVEGNYLAQTSLLVKMYTGKDVTNSILKWNGRPFLRDELEEALIKVIKDGEKRVVLNGGI chain 2: MAAFKPQWNDWCPGCGNFGILNAEQQAIVELGVDTKNVVVVSGIGCSGIIPHFFRTPISGVHTLHGRAIAFATGIKLSNPDLVVIVNGGDGDLLGIGAGHFVAAGRRNVDMVVILHDNGVYGLTKGQASPTLKRGEKPKSLPRPNINDAVNPIALAISSGYTFVARGYAYDVKHLKELIKSAIKHKGLALIDVLQPCPTYNDINTKEWYDKRIYKLDTLPDWDPVVKKPEEVNEKIKRAIDKSLEWGDRIPIGIFYQNELVPSYEERIKANSPAYLDYTPAKQLIEKEGKLTTIIDPLLKEREVD			910 ± 120	2.1
StOFOR2 (Sulfurisphaera tokodaii str. 7) (protein, recombinant in E. coli C43(DE3), genes from S. tokodaii genomic DNA in pOFORAB (pET-17b based), untagged; (ab)2 heterotetramer with TPP, Mg2+, [4Fe-4S]) chain 1: MTRIVWMIGGAQGLGVDTSANIFGNAVAKAGYYLFGNREYYSNIKGRHSYFEVVISEKPIRSLSSYVNILASFDAETVFQHFTETKEYLIYNVEYENTTVDLVKSMEPEMAEQVKEALSKERLGFTIKDVLEYLKRRGVKVIGFNYTELIKKIADTFKVPMSVVERAKNMIAVGASYGLLGLKFDYLKDAISSTFKNELFIKFNTMAAELGYNSVPNVYKLQEYKIEKQRIQVDGNTISAMGKLAGGLRFQSYYPITPASDESVYIEANQNLDMIVEGNELRKGGVVVVQAEDELAAINMAVGAALTGVRSATATSGPGFSLMSEGISWAGMNEVPVVITYYMRGAPATGLPTRSGQADLKFALNVGHGEFPRIVIASGDHVEIFWDAIWALNLAEKYQTPVIHIIEKTLANAYSVFEEELITNRPYVIERGKIVKPTSDYFNRFEVTEDGISPRVFLGQASIFYTGDEHNEEGHITENSINRMKMYEKRNKKLETADKEIPEEQRVNIVGDADIVLLTWGSPKGAILDAMEELSKDGIKTMMVQVKMFNPYPKNLMKKILSGKSKIIAVENNYNAQGAEVLAEKTGIFATNYILKWTGRPITREEVIEGIKKILERDEKRVVLYGGA chain 2: MVERKPVFVDWCPGCGDFGILRAEEMAIRELGINPKSVVIVSGIGCSGKIPHFMNLPISGVHTLHGRSIAFATGIKLSNPSLEVIVNVGDGDGLGIGMGHFVHLGRRNIDIAVLVHNNGVYGLTKGQASPTLHRGEKTKSLPKPNIMDAVNPLAVALAAGYTFVARGYAYDVMHLKELIKKAILHKGSALVDILQPCPTYNDINTKEWYDKRVYKLDNVPGWDPVVRKEEEAQKKFEQAIMKSYEWGEKIPIGIFYQNELVPTFEDRLTSNIPNYREYYPAKQQIEINGISTTKIDELIKAKRI	15000 ± 2000	1.4	1600 ± 300	7
